{
  "source": "patent US20210024646A1",
  "about": "(FUDAN UNIVERSITY, published 2021)",
  "key": {"[1]": {"target": "T1, extracellular domain of human CD73 protein (CD73-ECD), C-terminus polyhistidine-tagged (human, UniProt P21589 27-547)", "T1 construct": "also called Human CD73-ECD; human recombinant CD73 enzyme (CD73 extracellular domain)", "T1 sequence": "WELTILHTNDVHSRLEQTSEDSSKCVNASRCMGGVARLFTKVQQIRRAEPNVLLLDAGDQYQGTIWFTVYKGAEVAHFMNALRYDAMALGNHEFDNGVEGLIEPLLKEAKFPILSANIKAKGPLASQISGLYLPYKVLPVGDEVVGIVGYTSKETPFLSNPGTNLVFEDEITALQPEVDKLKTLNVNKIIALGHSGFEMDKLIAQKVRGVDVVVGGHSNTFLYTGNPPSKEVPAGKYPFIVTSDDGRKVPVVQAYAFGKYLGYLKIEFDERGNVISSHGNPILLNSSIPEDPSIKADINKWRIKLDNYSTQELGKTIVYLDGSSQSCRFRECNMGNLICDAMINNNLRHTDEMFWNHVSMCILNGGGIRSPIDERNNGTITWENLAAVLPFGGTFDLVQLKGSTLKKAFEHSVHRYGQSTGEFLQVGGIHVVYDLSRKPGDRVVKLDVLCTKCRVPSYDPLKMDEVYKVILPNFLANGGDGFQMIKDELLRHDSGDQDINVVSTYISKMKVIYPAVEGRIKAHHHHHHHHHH", "test": "ELISA, coated CD73-ECD"}, "[2]": {"target": "T2, CD73 on the surface of human tumor cells (human, UniProt P21589 27-549)", "T2 construct": "whole, on cells; One entry for endogenous CD73 on all cell lines; the cell line is named under assay or readout; also called CD73 receptors on the surface of tumor cells; tumor cell CD73", "T2 sequence (looked up)": "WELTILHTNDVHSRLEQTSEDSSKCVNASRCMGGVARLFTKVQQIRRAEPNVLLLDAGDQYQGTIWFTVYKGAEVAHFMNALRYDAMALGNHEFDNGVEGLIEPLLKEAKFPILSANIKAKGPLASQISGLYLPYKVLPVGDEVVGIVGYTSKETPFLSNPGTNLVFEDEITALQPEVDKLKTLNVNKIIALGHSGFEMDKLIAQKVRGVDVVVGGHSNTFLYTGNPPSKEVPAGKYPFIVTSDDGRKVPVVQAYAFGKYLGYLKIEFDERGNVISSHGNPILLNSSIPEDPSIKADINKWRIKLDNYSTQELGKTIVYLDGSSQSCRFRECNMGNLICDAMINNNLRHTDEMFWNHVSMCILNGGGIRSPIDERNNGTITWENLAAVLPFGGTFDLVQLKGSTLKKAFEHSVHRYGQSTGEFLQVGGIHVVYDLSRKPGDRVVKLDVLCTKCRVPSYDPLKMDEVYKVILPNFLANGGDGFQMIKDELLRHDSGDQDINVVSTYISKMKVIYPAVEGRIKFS", "test": "flow cytometry, NCI-H1299 cells"}},
  "data": [
    {"binder": "Hu001c-21 (antibody, V domains shown, Humanized) VH: QVQLVQSGAEVKKPGASVKVSCKASGYTFTNYYIYWVRQAPGQRLEWIGWIYPGNLNIKYNEKFKGRVTITADKSASTAYMELSSLRSEDTAVYYCARDDNYAWFAYWGQGTLVTVSS VL: DIQMTQSPSSLSASVGDRVTITCKASQDVSTAVAWYQQKPGKAPKLLIYWTNTRHTGVPSRFSGSGSGTDHTLTISSLQPEDFATYYCQQHYSTPFTFGQGTKLEIK", "values": [
      {"measurement": "binding result", "setting": "[1]", "result": "binds"}
    ]},
    {"binder": "Hu001c-31 (antibody, V domains shown, Humanized) VH: QVQLVQSGAEVKKPGASVKVSCKASGYTFTNYYIYWVRQAPGQRLEWIGWIYPGNLNIKYNEKFKGRSTLTADKSASTAYMELSSLRSEDTAVYYCARDDNYAWFAYWGQGTLVTVSS VL: DIQMTQSPSSLSASVGDRVTITCKASQDVSTAVAWYQQKPGKAPKLLIYWTNTRHTGVPSRFSGSGSGTDHTLTISSLQPEDFATYYCQQHYSTPFTFGQGTKLEIK", "values": [
      {"measurement": "binding result", "setting": "[1]", "result": "binds"},
      {"measurement": "binding result", "setting": "[2]", "result": "binds"}
    ]},
    {"binder": "Hu001c-30 (antibody, V domains shown, Humanized) VH: QVQLVQSGAEVKKPGASVKVSCKASGYTFTNYYIYWVKQRPGQRLEWIGWIYPGNLNIKYNEKFKGRSTLTADKSASTAYMELSSLRSEDTAVYYCARDDNYAWFAYWGQGTLVTVSS VL: DIQMTQSPSSLSASVGDRVTITCKASQDVSTAVAWYQQKPGKAPKLLIYWTNTRHTGVPSRFSGSGSGTDFTLTISSLQPEDFATYYCQQHYSTPFTFGQGTKLEIK", "values": [
      {"measurement": "binding result", "setting": "[1]", "result": "binds"},
      {"measurement": "binding result", "setting": "[2]", "result": "binds"}
    ]},
    {"binder": "Hu001c-32 (antibody, V domains shown, Humanized) VH: QVQLVQSGAEVKKPGASVKVSCKASGYTFTNYYIYWVKQRPGQRLEWIGWIYPGNLNIKYNEKFKGRSTLTADKSASTAYMELSSLRSEDTAVYYCARDDNYAWFAYWGQGTLVTVSS VL: DIQMTQSPSSLSASVGDRVTITCKASQDVSTAVAWYQQKPGKAPKLLIYWTNTRHTGVPSRFSGSGSGTDHTLTISSLQPEDFATYYCQQHYSTPFTFGQGTKLEIK", "values": [
      {"measurement": "binding result", "setting": "[1]", "result": "binds"},
      {"measurement": "binding result", "setting": "[2]", "result": "binds"}
    ]},
    {"binder": "Hu001c-28 (antibody, V domains shown, Humanized) VH: QVQLVQSGAEVKKPGASVKVSCKTSGYTFTNYYIYWVKQRPGQGLEWIGWIYPGNLNIKYNEKFKGRVTITADKSASTAYMELSSLRSEDTAVYYCARDDNYAWFAYWGQGTLVTVSS VL: DIQMTQSPSSLSASVGDRVTITCKASQDVSTAVAWYQQKPGKSPKLLIYWTNTRHTGVPSRFSGSGSGTDHTLTISSLQPEDFATYYCQQHYSTPFTFGQGTKLEIK", "values": [
      {"measurement": "binding result", "setting": "[1]", "result": "binds"},
      {"measurement": "binding result", "setting": "[2]", "result": "binds"}
    ]},
    {"binder": "Hu002c-6 (antibody, V domains shown, Humanized) VH: QVQLVQSGAEVKKPGASVKVSCKASGYTLTSYWMHWVRQAPGQGLEWIGEINPSQGRSNYNEKFKSRVTLTVDRSTSTVYMELSSLRSEDTAVYYCARRGVSGNYFDYWGQGTLVTVSS VL: DIQMTQSPSSLSASVGDRVTITCKASQDINTYLSWFQQKPGKAPKSLIYRSNILVSGVPSRFSGSGSGQDYTLTISSLQPEDFATYYCLQYDEFPYTFGQGTKLEIK", "values": [
      {"measurement": "binding result", "setting": "[1]", "result": "binds"},
      {"measurement": "binding result", "setting": "[2]", "result": "binds"}
    ]},
    {"binder": "Hu002c-2 (antibody, V domains shown, Humanized) VH: QVQLVQSGAEVKKPGASVKVSCKASGYTLTSYWMHWVRQAPGQGLEWMGEINPSQGRSNYNEKFKSRVTMTRDTSTSTVYMELSSLRSEDTAVYYCARRGVSGNYFDYWGQGTLVTVSS VL: DIQMTQSPSSLSASVGDRVTITCKASQDINTYLSWFQQKPGKAPKSLIYRSNILVSGVPSRFSGSGSGQDYTLTISSLQPEDFATYYCLQYDEFPYTFGQGTKLEIK", "values": [
      {"measurement": "binding result", "setting": "[1]", "result": "binds"},
      {"measurement": "binding result", "setting": "[2]", "result": "binds"}
    ]},
    {"binder": "Hu002c-3 (antibody, V domains shown, Humanized) VH: QVQLVQSGAEVKKPGASVKVSCKASGYTLTSYWMHWVRQAPGQGLEWMGEINPSQGRSNYNEKFKSRVTMTRDTSTSTVYMELSSLRSEDTAVYYCARRGVSGNYFDYWGQGTLVTVSS VL: DIQMTQSPSSLSASVGDRVTITCKASQDINTYLSWFQQKPGKSPKSLIYRSNILVSGVPSRFSGSGSGQDYTLTISSLQPEDFATYYCLQYDEFPYTFGGGTKLEIK", "values": [
      {"measurement": "binding result", "setting": "[1]", "result": "binds"},
      {"measurement": "binding result", "setting": "[2]", "result": "binds"}
    ]}
  ]
}
